Results on three molecules are retold here after PMC6464244, “The fungal ribonuclease-like effector protein CSEP0064/BEC1054 represses plant immunity and interferes with degradation of host ribosomal RNA”.

Series [1] deals with T1, CSEP0064/BEC1054 (Blumeria graminis, UniProt N1JJ94 22-118).
T1 sequence: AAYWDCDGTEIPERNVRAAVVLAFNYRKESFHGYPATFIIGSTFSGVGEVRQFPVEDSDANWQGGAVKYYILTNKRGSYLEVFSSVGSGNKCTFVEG
Description: NMR 1H-15N HSQC titration; fast exchange; small CSPs, saturation at ~50 molar equivalents; binding observed. The following applies: protein: recombinant; tags: Trx-His6 removed by TEV; NT-647 NHS amine label for MST; 15N for NMR; hairpin (predicted same fold as SRL RNA).

Series [2] addresses T1, CSEP0064/BEC1054. Description: NMR 1H-15N HSQC titration; 8 mole equivalents; discrete CSPs, weak. The following applies: protein: recombinant; tags: Trx-His6 removed by TEV; NT-647 NHS amine label for MST; 15N for NMR; hairpin (SRL fold).
The target in series [3] is T1, CSEP0064/BEC1054. The series can be described thus: MST; up to 1 mM; no curve could be fitted; MST: 20 mM Tris pH 7.4, 150 mM NaCl, 0.05% Tween, 50 nM labelled protein; NMR: 50 uM protein, 50 mM Tris, 150 mM NaCl, 308 K. The note with it: protein: recombinant; tags: Trx-His6 removed by TEV; NT-647 NHS amine label for MST; 15N for NMR; single strand.

B1: SRL DNA oligonucleotide (structured_DNA)
DNA: ACCTGCTCAGTACGAGAGGAACCGCAGGT
modifications: DNA version of SRL RNA
Take B1: in series [1], the Kd is > 10 µM.

B2: SRL RNA (barley 28S rRNA sarcin-ricin loop) (structured_RNA)
RNA: ACCUGCUCAGUACGAGAGGAACCGCAGGU
For B2, the binding result in series [2] is “binds”.

B3: bacteriophage T7 promoter RNA (non-rRNA control) (ssRNA)
RNA: AAUUUAAUACGACUCACUAUAGG
B3: in series [3], the binding result is recorded as “no binding”.

Broadly, the Kd is the constant that tells how readily two partners part at equilibrium.
